The experiment concerns the target endogenous Sec22b (rat) (rat (endogenous in PC12 and in rat hippocampal neurons)) (UniProt Q4KM74). The experiment is described as follows: proximity ligation.
Chain of UniProt Q4KM74 (Q4KM74 whole entry): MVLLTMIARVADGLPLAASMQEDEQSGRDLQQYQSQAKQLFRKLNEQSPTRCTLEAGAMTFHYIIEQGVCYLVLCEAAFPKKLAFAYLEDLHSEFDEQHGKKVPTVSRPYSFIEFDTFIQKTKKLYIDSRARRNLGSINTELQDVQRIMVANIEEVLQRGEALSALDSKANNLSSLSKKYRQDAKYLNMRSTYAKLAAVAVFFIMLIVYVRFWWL

“endogenous E-Syt2 (rat hippocampal neurons) (natural protein)” showed a PLA signal normalized for the area, cell bodies of 2.85%; a PLA signal normalized for the area, growth cones of 7.64%; a PLA signal normalized for the area, neurites of 5.53%.

(Values after article doi:10.1101/2019.12.24.886648.)
